Target: T1, Human plasminogen (human)
T1 construct: human plasminogen, 92 kDa, commercial; also called PLG; purified plasminogen; source: bought: Sigma-Aldrich
Test: ELISA; plasminogen immobilised on plate wells (1 ug in 100 uL PBS), blocked with 1% gelatin; AdcA 0-1 uM in PBS, 1.5 h at 37 C; bound AdcA detected with rabbit anti-AdcA serum; apparent KD from the fit to total binding saturation (GraphPad Prism); MntC run as control; EACA (0.1-10 mM) or NaCl (25-800 mM) added in further panels
Conditions: both partners purified

T1 sequence (P00747 20-810): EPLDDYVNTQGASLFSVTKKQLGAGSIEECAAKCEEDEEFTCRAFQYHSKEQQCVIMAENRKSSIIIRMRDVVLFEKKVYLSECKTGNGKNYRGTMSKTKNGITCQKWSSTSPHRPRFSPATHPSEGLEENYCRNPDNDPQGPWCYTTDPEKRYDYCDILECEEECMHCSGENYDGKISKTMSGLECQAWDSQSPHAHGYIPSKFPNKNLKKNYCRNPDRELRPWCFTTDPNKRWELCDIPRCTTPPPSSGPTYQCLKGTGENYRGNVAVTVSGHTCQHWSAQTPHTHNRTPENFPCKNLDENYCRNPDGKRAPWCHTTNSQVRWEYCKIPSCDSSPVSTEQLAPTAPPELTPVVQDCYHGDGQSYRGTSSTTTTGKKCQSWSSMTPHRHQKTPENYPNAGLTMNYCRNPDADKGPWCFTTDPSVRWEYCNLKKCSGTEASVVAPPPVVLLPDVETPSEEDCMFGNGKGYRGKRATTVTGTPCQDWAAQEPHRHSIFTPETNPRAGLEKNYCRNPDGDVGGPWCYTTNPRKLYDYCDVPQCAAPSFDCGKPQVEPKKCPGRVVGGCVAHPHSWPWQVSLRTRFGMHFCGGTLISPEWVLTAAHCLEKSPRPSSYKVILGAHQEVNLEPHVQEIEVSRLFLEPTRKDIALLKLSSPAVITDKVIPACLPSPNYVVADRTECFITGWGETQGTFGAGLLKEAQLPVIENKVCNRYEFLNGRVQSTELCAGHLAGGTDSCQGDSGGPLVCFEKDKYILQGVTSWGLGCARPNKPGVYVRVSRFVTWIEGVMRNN

B1: MntC from Staphylococcus aureus (natural protein)
chain: CGTGGKQSSDKSNGKLKVVTTNSILYDMAKNVGGDNVDIHSIVPVGQDPHEYEVKPKDIKKLTDADVILYNGLNLETGNGWFEKALEQAGKSLKDKKVIAVSKDVKPIYLNGEEGNKDKQDPHAWLSLDNGIKYVKTIQQTFIDNDKKHKADYEKQGNKYIAQLEKLNNDSKDKFNDIPKEQRAMITSEGAFKYFSKQYGITPGYIWEINTEKQGTPEQMRQAIEFVKKHKLKHLLVETSVDKKAMESLSEETKKDIFGEVYTDSIGKEGTKGDSYYKMMKSNIETVHGSMK
- Kd: 14.8 nM

— article PMC8878332, “The C-Terminal Domain of Staphylococcus aureus Zinc Transport Protein AdcA Binds Plasminogen and Factor H In Vitro” (Pathogens, 2022)
